Biological target: T1, PaeCascade (type I-F Csy complex: Csy1, Csy2, Csy3, Csy4 + crRNA) (Pseudomonas aeruginosa, UniProt Q02ML9;Q02MM0;Q02MM1;Q02MM2 1-434;1-327;1-342;1-187)
T1 sequence 1: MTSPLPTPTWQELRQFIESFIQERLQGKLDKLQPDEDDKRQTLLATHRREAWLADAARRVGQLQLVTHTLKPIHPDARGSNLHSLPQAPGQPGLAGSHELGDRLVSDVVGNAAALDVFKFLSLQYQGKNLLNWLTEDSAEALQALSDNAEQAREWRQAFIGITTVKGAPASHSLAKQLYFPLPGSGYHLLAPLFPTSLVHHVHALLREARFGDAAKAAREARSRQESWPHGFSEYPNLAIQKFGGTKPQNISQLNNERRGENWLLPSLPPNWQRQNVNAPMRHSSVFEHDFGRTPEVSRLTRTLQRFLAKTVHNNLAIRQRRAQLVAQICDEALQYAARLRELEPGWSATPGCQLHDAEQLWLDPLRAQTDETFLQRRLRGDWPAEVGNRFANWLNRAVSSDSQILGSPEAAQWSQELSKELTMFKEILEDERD
T1 sequence 2: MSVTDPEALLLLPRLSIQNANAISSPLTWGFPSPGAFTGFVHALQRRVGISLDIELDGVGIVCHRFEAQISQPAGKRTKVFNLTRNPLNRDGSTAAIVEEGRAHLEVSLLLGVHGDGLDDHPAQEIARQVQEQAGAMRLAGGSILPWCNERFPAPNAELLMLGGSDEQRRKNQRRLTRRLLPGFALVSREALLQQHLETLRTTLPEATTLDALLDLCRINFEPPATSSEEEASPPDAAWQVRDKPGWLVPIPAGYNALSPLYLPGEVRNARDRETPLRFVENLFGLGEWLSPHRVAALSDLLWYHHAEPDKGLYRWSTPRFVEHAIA
T1 sequence 3: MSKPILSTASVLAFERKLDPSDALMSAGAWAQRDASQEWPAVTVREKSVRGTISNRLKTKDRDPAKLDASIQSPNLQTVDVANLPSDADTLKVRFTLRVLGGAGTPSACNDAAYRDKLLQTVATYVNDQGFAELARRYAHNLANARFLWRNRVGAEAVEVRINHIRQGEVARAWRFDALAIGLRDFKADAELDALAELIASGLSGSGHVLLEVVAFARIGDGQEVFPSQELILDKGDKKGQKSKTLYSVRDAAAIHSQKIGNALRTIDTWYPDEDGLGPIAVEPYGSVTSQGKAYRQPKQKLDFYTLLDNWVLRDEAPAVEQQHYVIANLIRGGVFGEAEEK
T1 sequence 4: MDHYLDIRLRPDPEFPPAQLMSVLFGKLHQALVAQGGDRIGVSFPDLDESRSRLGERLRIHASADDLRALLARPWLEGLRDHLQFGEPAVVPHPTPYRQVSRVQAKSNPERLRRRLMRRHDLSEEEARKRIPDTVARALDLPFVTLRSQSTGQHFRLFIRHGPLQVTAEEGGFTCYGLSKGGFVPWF
Assay: EMSA; crRNA-loaded complex; 200 nM DNA; 1 mM EDTA; 50 mM HEPES-Na pH 7.0, 50 mM NaCl, 1 mM DTT, 1 mM EDTA, 10 IU RNase inhibitor, 200 nM dsDNA, 37 C 30 min; non-denaturing TBE-PAGE, GelRed stain
Settings: protein: recombinant; copies: 1;1;6;1; blunt

B1: type I-F EMSA target dsDNA (dsDNA)
DNA 1: CTATCGAAGCAATACAGGTAGACGCGGACATCAAGCCCGCCGTGAAGGTGCAGCTTCTC
DNA 2: GAGAAGCTGCACCTTCACGGCGGGCTTGATGTCCGCGTCTACCTGTATTGCTTCGATAG
binding result: binds

Source: publication PMC7305327, “Repurposing type I–F CRISPR–Cas system as a transcriptional activation tool in human cells”
